The values that follow come from patent US20150344570A1 (published 2015).

B1: GpH7-A5/GpH7-B3 variant E333_04F/GpL16-k0 (antibody, human IgG1, kappa)
heavy 1: not shown
heavy 2: not shown
light: DIVMTQSPLSLPVTPGEPASISCQASESLVHSNRNTYLHWYLQKPGQSPQLLIYKVSNRFSGVPDRFSGSGSGTDFTLKISRVEAEDVGVYYCSQNTHVPPTFGQGTKVEIERTVAAPSVFIFPPSDEQLKSGTASVVCLLNNFYPREAKVQWKVDNALQSGNSQESVTEQDSKDSTYSLSSTLTLSKADYEKHKVYACEVTHQGLSSPVTKSFNRGEC
notes: one H chain altered; also called He Ab E333_04F
B2: GpH7-A5/GpH7-B3 variant S337_20W/GpL16-k0 (antibody, human IgG1, kappa)
heavy 1: not shown
heavy 2: not shown
light: B1 light
notes: one H chain altered; also called He Ab S337_20W
B3: GpH7-A5/GpH7-B3 variant E333_20W/GpL16-k0 (antibody, human IgG1, kappa)
heavy 1: not shown
heavy 2: not shown
light: B1 light
notes: one H chain altered; also called He Ab E333_20W
B4: GpH7-A5/GpH7-B3 variant V266_08L/GpL16-k0 (antibody, human IgG1, kappa)
heavy 1: not shown
heavy 2: not shown
light: B1 light
notes: one H chain altered; also called He Ab V266_08L
B5: GpH7-A5/GpH7-B3 variant L234_20W/GpL16-k0 (antibody, human IgG1, kappa)
heavy 1: not shown
heavy 2: not shown
light: B1 light
notes: one H chain altered; also called He Ab L234_20W
B6: GpH7-A5/GpH7-B3 variant I336_18N/GpL16-k0 (antibody, human IgG1, kappa)
heavy 1: not shown
heavy 2: not shown
light: B1 light
notes: one H chain altered; also called He Ab I336_18N
B7: GpH7-A5/GpH7-B3 variant H268_18N/GpL16-k0 (antibody, human IgG1, kappa)
heavy 1: not shown
heavy 2: not shown
light: B1 light
notes: one H chain altered; also called He Ab H268_18N
B8: GpH7-A5/GpH7-B3 variant S337_14T/GpL16-k0 (antibody, human IgG1, kappa)
heavy 1: not shown
heavy 2: not shown
light: B1 light
notes: one H chain altered; also called He Ab S337_14T
B9: GpH7-A5/GpH7-B3 variant K326_07I/GpL16-k0 (antibody, human IgG1, kappa)
heavy 1: not shown
heavy 2: not shown
light: B1 light
notes: one H chain altered; also called He Ab K326_07I
B10: GpH7-A5/GpH7-B3 variant K326_08L/GpL16-k0 (antibody, human IgG1, kappa)
heavy 1: not shown
heavy 2: not shown
light: B1 light
notes: one H chain altered; also called He Ab K326_08L
B11: GpH7-A5/GpH7-B3 variant T335_10E/GpL16-k0 (antibody, human IgG1, kappa)
heavy 1: not shown
heavy 2: not shown
light: B1 light
notes: one H chain altered; also called He Ab T335_10E
B12: GpH7-A5/GpH7-B3 variant K334_01G/GpL16-k0 (antibody, human IgG1, kappa)
heavy 1: not shown
heavy 2: not shown
light: B1 light
notes: one H chain altered; also called He Ab K334_01G
B13: GpH7-A5/GpH7-B3 variant P271_01G/GpL16-k0 (antibody, human IgG1, kappa)
heavy 1: not shown
heavy 2: not shown
light: B1 light
notes: one H chain altered; also called He Ab P271_01G
B14: GpH7-A5/GpH7-B3 variant S337_10E/GpL16-k0 (antibody, human IgG1, kappa)
heavy 1: not shown
heavy 2: not shown
light: B1 light
notes: one H chain altered; also called He Ab S337_10E
B15: GpH7-A5/GpH7-B3 variant S298_14T/GpL16-k0 (antibody, human IgG1, kappa)
heavy 1: not shown
heavy 2: not shown
light: B1 light
notes: one H chain altered; also called He Ab S298_14T
B16: GpH7-A5/GpH7-B3 variant T335_15Y/GpL16-k0 (antibody, human IgG1, kappa)
heavy 1: not shown
heavy 2: not shown
light: B1 light
notes: one H chain altered; also called He Ab T335_15Y
B17: GpH7-A5/GpH7-B3 variant G236_15Y/GpL16-k0 (antibody, human IgG1, kappa)
heavy 1: not shown
heavy 2: not shown
light: B1 light
notes: one H chain altered; also called He Ab G236_15Y
B18: GpH7-A5/GpH7-B3 variant I336_06M/GpL16-k0 (antibody, human IgG1, kappa)
heavy 1: not shown
heavy 2: not shown
light: B1 light
notes: one H chain altered; also called He Ab I336_06M
B19: GpH7-A5/GpH7-B3 variant P238_10E/GpL16-k0 (antibody, human IgG1, kappa)
heavy 1: not shown
heavy 2: not shown
light: B1 light
notes: one H chain altered; also called He Ab P238_10E
B20: GpH7-A5/GpH7-B3 variant S337_18N/GpL16-k0 (antibody, human IgG1, kappa)
heavy 1: not shown
heavy 2: not shown
light: B1 light
notes: one H chain altered; also called He Ab S337_18N
B21: GpH7-A5/GpH7-B3 variant E333_13S/GpL16-k0 (antibody, human IgG1, kappa)
heavy 1: not shown
heavy 2: not shown
light: B1 light
notes: one H chain altered; also called He Ab E333_13S
B22: GpH7-A5/GpH7-B3 variant T335_20W/GpL16-k0 (antibody, human IgG1, kappa)
heavy 1: not shown
heavy 2: not shown
light: B1 light
notes: one H chain altered; also called He Ab T335_20W
B23: GpH7-A5/GpH7-B3 variant T335_16H/GpL16-k0 (antibody, human IgG1, kappa)
heavy 1: not shown
heavy 2: not shown
light: B1 light
notes: one H chain altered; also called He Ab T335_16H
B24: GpH7-A5/GpH7-B3 variant I336_02A/GpL16-k0 (antibody, human IgG1, kappa)
heavy 1: not shown
heavy 2: not shown
light: B1 light
notes: one H chain altered; also called He Ab I336_02A
B25: GpH7-A5/GpH7-B3 variant P238_09D/GpL16-k0 (antibody, human IgG1, kappa)
heavy 1: not shown
heavy 2: not shown
light: B1 light
notes: one H chain altered; also called He Ab P238_09D
B26: GpH7-A5/GpH7-B3 variant K334_09D/GpL16-k0 (antibody, human IgG1, kappa)
heavy 1: not shown
heavy 2: not shown
light: B1 light
notes: one H chain altered; also called He Ab K334_09D
B27: GpH7-A5/GpH7-B3 variant T335_13S/GpL16-k0 (antibody, human IgG1, kappa)
heavy 1: not shown
heavy 2: not shown
light: B1 light
notes: one H chain altered; also called He Ab T335_13S
B28: GpH7-A5/GpH7-B3 variant S337_04F/GpL16-k0 (antibody, human IgG1, kappa)
heavy 1: not shown
heavy 2: not shown
light: B1 light
notes: one H chain altered; also called He Ab S337_04F
B29: GpH7-A5/GpH7-B3 variant H268_02A/GpL16-k0 (antibody, human IgG1, kappa)
heavy 1: not shown
heavy 2: not shown
light: B1 light
notes: one H chain altered; also called He Ab H268_02A
B30: GpH7-A5/GpH7-B3 variant I332_06M/GpL16-k0 (antibody, human IgG1, kappa)
heavy 1: not shown
heavy 2: not shown
light: B1 light
notes: one H chain altered; also called He Ab I332_06M
B31: GpH7-A5/GpH7-B3 variant L234_04F/GpL16-k0 (antibody, human IgG1, kappa)
heavy 1: not shown
heavy 2: not shown
light: B1 light
notes: one H chain altered; also called He Ab L234_04F
B32: GpH7-A5/GpH7-B3 variant L234_07I/GpL16-k0 (antibody, human IgG1, kappa)
heavy 1: not shown
heavy 2: not shown
light: B1 light
notes: one H chain altered; also called He Ab L234_07I
B33: GpH7-A5/GpH7-B3 variant S324_16H/GpL16-k0 (antibody, human IgG1, kappa)
heavy 1: not shown
heavy 2: not shown
light: B1 light
notes: one H chain altered; also called He Ab S324_16H
B34: GpH7-A5/GpH7-B3 variant L234_09D/GpL16-k0 (antibody, human IgG1, kappa)
heavy 1: not shown
heavy 2: not shown
light: B1 light
notes: one H chain altered; also called He Ab L234_09D
B35: GpH7-A5/GpH7-B3 variant T335_07I/GpL16-k0 (antibody, human IgG1, kappa)
heavy 1: not shown
heavy 2: not shown
light: B1 light
notes: one H chain altered; also called He Ab T335_07I
B36: GpH7-A5/GpH7-B3 variant S267_09D/GpL16-k0 (antibody, human IgG1, kappa)
heavy 1: not shown
heavy 2: not shown
light: B1 light
notes: one H chain altered; also called He Ab S267_09D
B37: GpH7-A5/GpH7-B3 variant S337_15Y/GpL16-k0 (antibody, human IgG1, kappa)
heavy 1: not shown
heavy 2: not shown
light: B1 light
notes: one H chain altered; also called He Ab S337_15Y
B38: GpH7-A5/GpH7-B3 variant I336_03V/GpL16-k0 (antibody, human IgG1, kappa)
heavy 1: not shown
heavy 2: not shown
light: B1 light
notes: one H chain altered; also called He Ab I336_03V
B39: GpH7-A5/GpH7-B3 variant S324_15Y/GpL16-k0 (antibody, human IgG1, kappa)
heavy 1: not shown
heavy 2: not shown
light: B1 light
notes: one H chain altered; also called He Ab S324_15Y
B40: GpH7-A5/GpH7-B3 variant I336_08L/GpL16-k0 (antibody, human IgG1, kappa)
heavy 1: not shown
heavy 2: not shown
light: B1 light
notes: one H chain altered; also called He Ab I336_08L
B41: GpH7-A5/GpH7-B3 variant E333_09D/GpL16-k0 (antibody, human IgG1, kappa)
heavy 1: not shown
heavy 2: not shown
light: B1 light
notes: one H chain altered; also called He Ab E333_09D
B42: GpH7-A5/GpH7-B3 variant S337_09D/GpL16-k0 (antibody, human IgG1, kappa)
heavy 1: not shown
heavy 2: not shown
light: B1 light
notes: one H chain altered; also called He Ab S337_09D
B43: GpH7-A5/GpH7-B3 variant Q295_14T/GpL16-k0 (antibody, human IgG1, kappa)
heavy 1: not shown
heavy 2: not shown
light: B1 light
notes: one H chain altered; also called He Ab Q295_14T
B44: GpH7-A5/GpH7-B3 variant T335_19Q/GpL16-k0 (antibody, human IgG1, kappa)
heavy 1: not shown
heavy 2: not shown
light: B1 light
notes: one H chain altered; also called He Ab T335_19Q
B45: GpH7-A5/GpH7-B3 variant S267_02A/GpL16-k0 (antibody, human IgG1, kappa)
heavy 1: not shown
heavy 2: not shown
light: B1 light
notes: one H chain altered; also called He Ab S267_02A
B46: GpH7-A5/GpH7-B3 variant S324_02A/GpL16-k0 (antibody, human IgG1, kappa)
heavy 1: not shown
heavy 2: not shown
light: B1 light
notes: one H chain altered; also called He Ab S324_02A
B47: GpH7-A5/GpH7-B3 variant I332_01G/GpL16-k0 (antibody, human IgG1, kappa)
heavy 1: not shown
heavy 2: not shown
light: B1 light
notes: one H chain altered; also called He Ab I332_01G

For this test, the target named is FcγRIIIa extracellular domain with C-terminal His tag (human, UniProt P08637 17-208). Kind of test: SPR (Biacore), one H chain altered; HeCon Ab GpH7-A5/GpH7-B3/GpL16-k0 = 100.
FcγRIIIa extracellular domain with C-terminal His tag, sequence (P08637 17-208): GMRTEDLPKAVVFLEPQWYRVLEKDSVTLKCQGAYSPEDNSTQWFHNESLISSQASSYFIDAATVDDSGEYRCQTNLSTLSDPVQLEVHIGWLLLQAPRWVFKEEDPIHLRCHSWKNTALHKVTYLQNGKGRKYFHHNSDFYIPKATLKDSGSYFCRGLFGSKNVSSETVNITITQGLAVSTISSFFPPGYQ
Take B1: the He/Con_3a amounted to 101%.
Then B2, with 101%; and B3, with 101%; and B4, with 118%.
Under B5 stands 107%.
Then B6, with 104%; and B7, with 104%.
B8 gave a He/Con_3a of 101%.
B9: the He/Con_3a was found to be 139%.
Then B10, with 114%; and B11, with 107%.
Under B12 stands 121%.
Then B13, with 113%; and B14, with 105%; and B15, with 113%.
As for B16, the He/Con_3a is 104%.
For the molecule B17, the He/Con_3a is 121%.
Then B18, with 109%; and B19, with 105%; and B20, with 104%.
Under B21 stands 103%.
Turning to B22, the He/Con_3a came to 102%.
Then B23, with 104%; and B24, with 111%; and B25, with 106%.
The molecule B26 displayed a He/Con_3a of 160%.
As for B27, the He/Con_3a amounted to 105%.
For B28, the He/Con_3a came out at 101%.
For B29, the He/Con_3a came to 122%.
Regarding B30, the He/Con_3a is 101%.
Then B31, with 118%.
With B32, the He/Con_3a was determined as 103%.
Under B33 stands 104%; under B34, 117%; under B35, 107%.
As to B36, the He/Con_3a was 181%.
Under B37 stands 102%.
Then B38, with 112%; and B39, with 101%.
Under B40 stands 106%.
In turn, B41 registered a He/Con_3a of 112%.
Under B42 stands 110%; under B43, 115%.
Then B44, with 102%; and B45, with 150%.
Under B46 stands 104%; under B47, 111%.
